Measurements as given in patent US20250262210A1 (TRUSTEES OF COLUMBIA UNIVERSITY IN THE CITY OF NEW YORK, published 2025).

Legend:
Experiment in all cases: IP/MS, LZTR1 wild type-FLAG, U87
PPFIBP1 = target: T1, PPFIBP1 (human, UniProt Q86W92 1-1011, limits assumed)
T1 sequence (looked up): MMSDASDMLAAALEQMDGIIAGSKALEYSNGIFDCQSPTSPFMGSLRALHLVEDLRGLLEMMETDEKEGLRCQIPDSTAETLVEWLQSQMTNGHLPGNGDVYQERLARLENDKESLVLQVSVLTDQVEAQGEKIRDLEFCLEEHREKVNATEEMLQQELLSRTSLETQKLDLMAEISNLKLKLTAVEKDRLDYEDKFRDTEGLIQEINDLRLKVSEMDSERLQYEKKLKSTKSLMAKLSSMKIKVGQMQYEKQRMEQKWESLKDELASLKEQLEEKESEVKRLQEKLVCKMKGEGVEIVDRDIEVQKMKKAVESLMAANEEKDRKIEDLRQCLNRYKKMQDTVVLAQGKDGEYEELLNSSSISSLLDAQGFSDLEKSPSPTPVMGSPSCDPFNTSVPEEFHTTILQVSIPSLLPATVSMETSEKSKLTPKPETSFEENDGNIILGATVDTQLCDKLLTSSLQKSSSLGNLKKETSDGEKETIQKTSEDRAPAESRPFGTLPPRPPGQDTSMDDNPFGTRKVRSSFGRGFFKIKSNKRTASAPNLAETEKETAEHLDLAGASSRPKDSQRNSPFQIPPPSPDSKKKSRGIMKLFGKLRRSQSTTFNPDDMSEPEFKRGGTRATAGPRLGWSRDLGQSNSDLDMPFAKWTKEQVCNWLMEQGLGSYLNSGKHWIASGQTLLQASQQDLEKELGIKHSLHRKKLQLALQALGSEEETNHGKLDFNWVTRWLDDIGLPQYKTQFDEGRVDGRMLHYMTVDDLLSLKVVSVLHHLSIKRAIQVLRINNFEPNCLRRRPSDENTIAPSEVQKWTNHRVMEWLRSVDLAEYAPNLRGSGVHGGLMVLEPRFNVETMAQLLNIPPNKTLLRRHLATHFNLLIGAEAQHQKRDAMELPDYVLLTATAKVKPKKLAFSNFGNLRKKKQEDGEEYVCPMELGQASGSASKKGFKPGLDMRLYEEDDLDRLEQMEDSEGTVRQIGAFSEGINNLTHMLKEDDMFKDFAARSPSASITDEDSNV
Procedure, shortened: (§1)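 Gel slices were reduced with 5 mM DTT, alkylated with 11 mM IAA and digested overnight at 37° C. with trypsin. Peptides were analysed on an Orbitrap Fusion Tribrid by LC-MS/MS.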

INTS1 = INTS1 (human, UniProt Q8N201 1-2190)
Procedure, shortened: as §1

KDM5C = KDM5C (human, UniProt P41229 1-1560, limits assumed)
Chain of KDM5C (P41229 whole entry): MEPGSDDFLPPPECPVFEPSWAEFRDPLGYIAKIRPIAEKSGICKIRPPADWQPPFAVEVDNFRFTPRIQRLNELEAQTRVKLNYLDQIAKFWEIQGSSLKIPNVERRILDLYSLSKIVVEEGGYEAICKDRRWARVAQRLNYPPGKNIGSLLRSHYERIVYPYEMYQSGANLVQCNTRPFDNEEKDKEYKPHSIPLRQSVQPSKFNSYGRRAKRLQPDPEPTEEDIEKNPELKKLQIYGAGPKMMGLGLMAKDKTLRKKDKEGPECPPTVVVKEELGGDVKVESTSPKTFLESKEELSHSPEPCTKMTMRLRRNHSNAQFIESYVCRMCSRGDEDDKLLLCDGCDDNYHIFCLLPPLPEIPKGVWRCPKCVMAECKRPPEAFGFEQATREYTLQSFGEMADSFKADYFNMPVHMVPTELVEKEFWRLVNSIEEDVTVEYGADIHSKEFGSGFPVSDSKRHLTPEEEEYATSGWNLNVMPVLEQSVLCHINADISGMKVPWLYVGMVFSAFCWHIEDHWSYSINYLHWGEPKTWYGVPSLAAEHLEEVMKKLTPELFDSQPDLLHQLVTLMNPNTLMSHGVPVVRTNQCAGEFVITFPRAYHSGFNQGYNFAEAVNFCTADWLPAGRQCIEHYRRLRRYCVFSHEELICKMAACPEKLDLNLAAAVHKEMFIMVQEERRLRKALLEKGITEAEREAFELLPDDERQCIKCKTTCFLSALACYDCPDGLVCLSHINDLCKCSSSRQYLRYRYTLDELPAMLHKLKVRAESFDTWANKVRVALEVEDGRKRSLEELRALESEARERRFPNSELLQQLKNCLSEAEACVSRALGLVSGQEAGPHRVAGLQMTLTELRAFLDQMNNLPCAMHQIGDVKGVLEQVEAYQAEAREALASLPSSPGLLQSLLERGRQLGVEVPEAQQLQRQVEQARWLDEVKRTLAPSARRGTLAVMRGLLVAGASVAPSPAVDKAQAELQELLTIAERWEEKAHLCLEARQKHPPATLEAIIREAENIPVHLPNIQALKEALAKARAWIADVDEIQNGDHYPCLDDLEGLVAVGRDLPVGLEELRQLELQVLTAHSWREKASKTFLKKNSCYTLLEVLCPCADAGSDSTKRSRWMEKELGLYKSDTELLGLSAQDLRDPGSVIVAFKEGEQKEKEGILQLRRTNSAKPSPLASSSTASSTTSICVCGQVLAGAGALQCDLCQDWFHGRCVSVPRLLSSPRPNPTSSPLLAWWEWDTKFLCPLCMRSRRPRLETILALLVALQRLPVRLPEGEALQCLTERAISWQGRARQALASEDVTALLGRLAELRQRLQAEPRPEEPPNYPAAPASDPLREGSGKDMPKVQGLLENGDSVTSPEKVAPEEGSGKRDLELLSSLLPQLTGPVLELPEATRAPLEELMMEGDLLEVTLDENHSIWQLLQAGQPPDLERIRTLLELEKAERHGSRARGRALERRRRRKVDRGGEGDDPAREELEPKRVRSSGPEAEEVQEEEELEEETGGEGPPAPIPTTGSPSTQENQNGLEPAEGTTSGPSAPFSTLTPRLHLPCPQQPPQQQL
Procedure, shortened: as §1

ARHGAP31 = ARHGAP31 (human, UniProt Q2M1Z3 1-1444)
Chain of ARHGAP31 (Q2M1Z3 whole entry): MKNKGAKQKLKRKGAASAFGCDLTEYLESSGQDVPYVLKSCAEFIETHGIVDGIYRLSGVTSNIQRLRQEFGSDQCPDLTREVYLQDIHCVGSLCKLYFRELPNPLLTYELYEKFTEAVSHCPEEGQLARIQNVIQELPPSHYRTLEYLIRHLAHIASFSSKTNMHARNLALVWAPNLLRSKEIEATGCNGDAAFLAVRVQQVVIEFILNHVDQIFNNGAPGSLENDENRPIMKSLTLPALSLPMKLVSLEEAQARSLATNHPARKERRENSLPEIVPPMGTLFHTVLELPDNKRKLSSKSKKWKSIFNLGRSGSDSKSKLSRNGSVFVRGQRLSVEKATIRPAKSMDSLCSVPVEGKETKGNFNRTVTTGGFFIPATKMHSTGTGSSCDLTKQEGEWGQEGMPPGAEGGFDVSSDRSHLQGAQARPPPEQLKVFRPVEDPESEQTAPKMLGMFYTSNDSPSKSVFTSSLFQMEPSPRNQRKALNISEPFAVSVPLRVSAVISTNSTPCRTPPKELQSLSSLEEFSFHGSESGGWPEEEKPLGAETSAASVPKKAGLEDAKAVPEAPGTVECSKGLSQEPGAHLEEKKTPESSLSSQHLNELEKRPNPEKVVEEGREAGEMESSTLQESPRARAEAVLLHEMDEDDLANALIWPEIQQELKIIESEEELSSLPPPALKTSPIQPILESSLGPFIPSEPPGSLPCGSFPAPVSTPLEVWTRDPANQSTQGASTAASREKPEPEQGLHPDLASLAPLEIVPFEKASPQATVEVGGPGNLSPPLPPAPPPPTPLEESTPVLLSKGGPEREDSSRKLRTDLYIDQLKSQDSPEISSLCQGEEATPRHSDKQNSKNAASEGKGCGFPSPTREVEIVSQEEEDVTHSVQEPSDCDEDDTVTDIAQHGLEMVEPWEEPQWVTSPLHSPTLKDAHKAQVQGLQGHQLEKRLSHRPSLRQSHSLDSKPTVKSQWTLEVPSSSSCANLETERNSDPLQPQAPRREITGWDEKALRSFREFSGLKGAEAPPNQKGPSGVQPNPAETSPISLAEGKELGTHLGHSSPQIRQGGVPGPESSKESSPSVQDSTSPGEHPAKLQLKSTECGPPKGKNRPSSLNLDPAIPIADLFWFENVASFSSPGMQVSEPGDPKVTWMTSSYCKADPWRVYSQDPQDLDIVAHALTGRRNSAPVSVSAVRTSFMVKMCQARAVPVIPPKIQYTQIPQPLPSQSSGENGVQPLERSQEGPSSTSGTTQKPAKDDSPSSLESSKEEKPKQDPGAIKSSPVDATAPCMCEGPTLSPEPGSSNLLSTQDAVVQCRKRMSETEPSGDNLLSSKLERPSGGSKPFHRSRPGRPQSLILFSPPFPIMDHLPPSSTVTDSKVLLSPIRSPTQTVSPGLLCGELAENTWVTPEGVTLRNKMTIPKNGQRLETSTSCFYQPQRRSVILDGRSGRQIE
Procedure, shortened: as §1

RICTOR = RICTOR (human, UniProt Q6R327 1-1708, limits assumed)
Chain of RICTOR (Q6R327 whole entry): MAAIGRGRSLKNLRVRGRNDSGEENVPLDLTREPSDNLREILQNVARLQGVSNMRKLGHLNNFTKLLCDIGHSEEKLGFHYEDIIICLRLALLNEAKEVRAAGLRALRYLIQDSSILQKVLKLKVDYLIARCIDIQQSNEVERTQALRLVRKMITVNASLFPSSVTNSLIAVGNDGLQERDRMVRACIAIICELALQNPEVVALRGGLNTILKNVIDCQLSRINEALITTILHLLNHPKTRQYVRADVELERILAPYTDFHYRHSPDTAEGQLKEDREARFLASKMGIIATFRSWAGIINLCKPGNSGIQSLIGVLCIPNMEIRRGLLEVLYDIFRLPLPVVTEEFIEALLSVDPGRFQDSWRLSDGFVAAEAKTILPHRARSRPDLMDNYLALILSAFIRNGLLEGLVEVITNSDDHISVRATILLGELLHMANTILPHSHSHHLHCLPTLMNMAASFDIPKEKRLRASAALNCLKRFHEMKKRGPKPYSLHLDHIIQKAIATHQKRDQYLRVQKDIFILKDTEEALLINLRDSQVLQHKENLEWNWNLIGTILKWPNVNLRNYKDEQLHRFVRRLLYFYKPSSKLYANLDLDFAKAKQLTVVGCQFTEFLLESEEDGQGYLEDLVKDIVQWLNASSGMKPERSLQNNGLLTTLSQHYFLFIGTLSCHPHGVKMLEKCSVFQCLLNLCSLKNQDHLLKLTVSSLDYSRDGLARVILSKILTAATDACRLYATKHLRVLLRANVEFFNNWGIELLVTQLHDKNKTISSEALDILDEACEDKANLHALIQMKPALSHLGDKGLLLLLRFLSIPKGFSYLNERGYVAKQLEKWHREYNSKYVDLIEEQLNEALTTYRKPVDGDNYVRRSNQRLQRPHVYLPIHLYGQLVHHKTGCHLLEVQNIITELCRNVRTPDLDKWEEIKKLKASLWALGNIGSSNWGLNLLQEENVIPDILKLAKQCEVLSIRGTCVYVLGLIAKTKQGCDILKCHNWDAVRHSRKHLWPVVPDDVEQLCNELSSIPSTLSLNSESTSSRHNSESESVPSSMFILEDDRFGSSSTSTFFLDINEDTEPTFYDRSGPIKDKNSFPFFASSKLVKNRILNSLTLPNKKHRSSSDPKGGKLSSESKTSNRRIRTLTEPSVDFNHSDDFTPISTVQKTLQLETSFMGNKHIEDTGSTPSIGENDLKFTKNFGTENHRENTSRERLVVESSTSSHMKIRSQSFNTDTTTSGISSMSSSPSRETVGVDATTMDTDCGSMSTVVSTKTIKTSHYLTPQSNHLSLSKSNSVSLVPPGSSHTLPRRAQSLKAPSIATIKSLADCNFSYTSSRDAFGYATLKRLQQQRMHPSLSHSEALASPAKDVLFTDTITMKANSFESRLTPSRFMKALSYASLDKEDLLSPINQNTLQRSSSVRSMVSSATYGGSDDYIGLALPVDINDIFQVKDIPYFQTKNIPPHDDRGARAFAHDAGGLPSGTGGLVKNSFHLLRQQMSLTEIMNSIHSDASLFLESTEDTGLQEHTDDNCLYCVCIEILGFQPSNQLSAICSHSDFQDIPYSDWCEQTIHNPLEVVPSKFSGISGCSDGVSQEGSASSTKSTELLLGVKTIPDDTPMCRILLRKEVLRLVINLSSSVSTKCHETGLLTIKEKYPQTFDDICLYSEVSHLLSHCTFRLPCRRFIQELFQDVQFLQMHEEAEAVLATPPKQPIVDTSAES
Procedure, shortened: as §1

binding result (PPFIBP1): binds
binding result (INTS1): binds
binding result (KDM5C): binds
binding result (ARHGAP31): binds
binding result (RICTOR): binds
B1: LZTR1-FLAG (other, human, UniProt Q8N653 1-840, looked up)
chain: MAGPGSTGGQIGAAALAGGARSKVAPSVDFDHSCSDSVEYLTLNFGPFETVHRWRRLPPCDEFVGARRSKHTVVAYKDAIYVFGGDNGKTMLNDLLRFDVKDCSWCRAFTTGTPPAPRYHHSAVVYGSSMFVFGGYTGDIYSNSNLKNKNDLFEYKFATGQWTEWKIEGRLPVARSAHGATVYSDKLWIFAGYDGNARLNDMWTIGLQDRELTCWEEVAQSGEIPPSCCNFPVAVCRDKMFVFSGQSGAKITNNLFQFEFKDKTWTRIPTEHLLRGSPPPPQRRYGHTMVAFDRHLYVFGGAADNTLPNELHCYDVDFQTWEVVQPSSDSEVGGAEVPERACASEEVPTLTYEERVGFKKSRDVFGLDFGTTSAKQPTQPASELPSGRLFHAAAVISDAMYIFGGTVDNNIRSGEMYRFQFSCYPKCTLHEDYGRLWESRQFCDVEFVLGEKEECVQGHVAIVTARSRWLRRKITQARERLAQKLEQEAAPVPREAPGVAAGGARPPLLHVAIREAEARPFEVLMQFLYTDKIKYPRKGHVEDVLLIMDVYKLALSFQLCRLEQLCRQYIEASVDLQNVLVVCESAARLQLSQLKEHCLNFVVKESHFNQVIMMKEFERLSSPLIVEIVRRKQQPPPRTPLDQPVDIGTSLIQDMKAYLEGAGAEFCDITLLLDGHPRPAHKAILAARSSYFEAMFRSFMPEDGQVNISIGEMVPSRQAFESMLRYIYYGEVNMPPEDSLYLFAAPYYYGFYNNRLQAYCKQNLEMNVTVQNVLQILEAADKTQALDMKRHCLHIIVHQFTKVSKLPTLRSLSQQLLLDIIDSLASHISDKQCAELGADI
notes: Expressed in HEK 293T, HeLa or U87 cells; used as cell lysate; also called LZTR1 wild type-FLAG; LZTR1 WT; not shown: FLAG tag at the C-terminus
